Source: the supplement of paper PMC10567573

B1: ZNF8 (parent)
chain: RTHTGEKPYTCSVCGKSFSRTTCL

Variants of: B1
Assay: protein stability index of a GFP-peptide fusion (GPS, HEK-293T) (PSI 1-6); higher = more stable
Conditions: c terminus: a fixed tail appended
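Note: lentivirally expressed fusions sorted by FACS into six bins by GFP to DsRed ratio, PSI derived from sequencing read proportions per bin multiplied by bin number.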

Row | Variant | protein stability index
1 | RTHTGYKPYTCSVCGKSFSRTTCL [E6Y] | 2.11
2 | RTHTGHKPYTCSVCGKSFSRTTCL [E6H] | 2.48
3 | RTTTGEKPYTCSVCGKSFSRTTCL [H3T] | 2.44
4 | RTITGEKPYTCSVCGKSFSRTTCL [H3I] | 2.21
5 | RTQTGEKPYTCSVCGKSFSRTTCL [H3Q] | 2.2
6 | RTETGEKPYTCSVCGKSFSRTTCL [H3E] | 2.72
7 | RTKTGEKPYTCSVCGKSFSRTTCL [H3K] | 2.05
8 | RTPTGEKPYTCSVCGKSFSRTTCL [H3P] | 2.46
9 | RTGTGEKPYTCSVCGKSFSRTTCL [H3G] | 2.86
10 | RTYTGEKPYTCSVCGKSFSRTTCL [H3Y] | 2.27
11 | RTFTGEKPYTCSVCGKSFSRTTCL [H3F] | 2.08
12 | RTLTGEKPYTCSVCGKSFSRTTCL [H3L] | 1.88
13 | RTCTGEKPYTCSVCGKSFSRTTCL [H3C] | 2.77
14 | RTATGEKPYTCSVCGKSFSRTTCL [H3A] | 1.86
15 | RTDTGEKPYTCSVCGKSFSRTTCL [H3D] | 2.82
16 | RTMTGEKPYTCSVCGKSFSRTTCL [H3M] | 2.37
17 | RTRTGEKPYTCSVCGKSFSRTTCL [H3R] | 2.15
18 | RTSTGEKPYTCSVCGKSFSRTTCL [H3S] | 2.66
19 | RTVTGEKPYTCSVCGKSFSRTTCL [H3V] | 2.82
20 | RTNTGEKPYTCSVCGKSFSRTTCL [H3N] | 2.72
21 | RTWTGEKPYTCSVCGKSFSRTTCL [H3W] | 1.82
22 | RTHTGEKPYGCSVCGKSFSRTTCL [T10G] | 2.21
23 | RTHTGEKPYVCSVCGKSFSRTTCL [T10V] | 2.72
24 | RTHTGEKPYYCSVCGKSFSRTTCL [T10Y] | 1.98

Row | Variant | protein stability index
25 | RTHTGEKPYHCSVCGKSFSRTTCL [T10H] | 2.75
26 | RTHTGEKPYSCSVCGKSFSRTTCL [T10S] | 2.36
27 | RTHTGEKPYKCSVCGKSFSRTTCL [T10K] | 2.15
28 | RTHTGEKPYWCSVCGKSFSRTTCL [T10W] | 1.75
29 | RTHTGEKPYDCSVCGKSFSRTTCL [T10D] | 2.43
30 | RTHTGEKPYECSVCGKSFSRTTCL [T10E] | 2.39
31 | RTHTGEKPYQCSVCGKSFSRTTCL [T10Q] | 2.6
32 | RTHTGEKPYMCSVCGKSFSRTTCL [T10M] | 2.19
33 | RTHTGEKPYCCSVCGKSFSRTTCL [T10C] | 2.83
34 | RTHTGEKPYACSVCGKSFSRTTCL [T10A] | 2.06
35 | RTHTGEKPYICSVCGKSFSRTTCL [T10I] | 2.65
36 | RTHTGEKPYNCSVCGKSFSRTTCL [T10N] | 2.2
37 | RTHTGEKPYFCSVCGKSFSRTTCL [T10F] | 1.89
38 | RTHTGEKPYRCSVCGKSFSRTTCL [T10R] | 2.51
39 | RTHTGEKPYPCSVCGKSFSRTTCL [T10P] | 2.27
40 | RTHTGEKPYLCSVCGKSFSRTTCL [T10L] | 2.05
41 | RTHTGEKPYTPSVCGKSFSRTTCL [C11P] | 2.56
42 | RTHTGEKPYTFSVCGKSFSRTTCL [C11F] | 2.23
43 | RTHTGEKPYTISVCGKSFSRTTCL [C11I] | 2.01
44 | RTHTGEKPYTASVCGKSFSRTTCL [C11A] | 2.88
45 | RTHTGEKPYTVSVCGKSFSRTTCL [C11V] | 2.24
46 | RTHTGEKPYTQSVCGKSFSRTTCL [C11Q] | 3.18
47 | RTHTGEKPYTRSVCGKSFSRTTCL [C11R] | 2.39
48 | RTHTGEKPYTNSVCGKSFSRTTCL [C11N] | 2.79

Row | Variant | protein stability index
49 | RTHTGEKPYTHSVCGKSFSRTTCL [C11H] | 1.99
50 | RTHTGEKPYTLSVCGKSFSRTTCL [C11L] | 2.43
51 | RTHTGEKPYTTSVCGKSFSRTTCL [C11T] | 2.39
52 | RTHTGEKPYTMSVCGKSFSRTTCL [C11M] | 3.35
53 | RTHTGEKPYTGSVCGKSFSRTTCL [C11G] | 2.33
54 | RTHTGEKPYTSSVCGKSFSRTTCL [C11S] | 2.52
55 | RTHTGEKPYTKSVCGKSFSRTTCL [C11K] | 2.25
56 | RTHTGEKPYTDSVCGKSFSRTTCL [C11D] | 2.83
57 | RTHTGEKPYTESVCGKSFSRTTCL [C11E] | 2.48
58 | RTHTGEKPNTCSVCGKSFSRTTCL [Y9N] | 2.51
59 | RTHTGEKPLTCSVCGKSFSRTTCL [Y9L] | 2.39
60 | RTHTGEKPRTCSVCGKSFSRTTCL [Y9R] | 2.29
61 | RTHTGEKPTTCSVCGKSFSRTTCL [Y9T] | 2.59
62 | RTHTGEKPKTCSVCGKSFSRTTCL [Y9K] | 2.08
63 | RTHTGEKPFTCSVCGKSFSRTTCL [Y9F] | 2.32
64 | RTHTGEKPMTCSVCGKSFSRTTCL [Y9M] | 2.23
65 | RTHTGEKPETCSVCGKSFSRTTCL [Y9E] | 2.95
66 | RTHTGEKPQTCSVCGKSFSRTTCL [Y9Q] | 2.31
67 | RTHTGEKPSTCSVCGKSFSRTTCL [Y9S] | 2.62
68 | RTHTGEKPVTCSVCGKSFSRTTCL [Y9V] | 2.65
69 | RTHTGEKPWTCSVCGKSFSRTTCL [Y9W] | 2.42
70 | RTHTGEKPPTCSVCGKSFSRTTCL [Y9P] | 2.4
71 | RTHTGEKPGTCSVCGKSFSRTTCL [Y9G] | 2.5
72 | RTHTGEKPATCSVCGKSFSRTTCL [Y9A] | 2.3

Row | Variant | protein stability index
73 | RTHTGEKPHTCSVCGKSFSRTTCL [Y9H] | 2.11
74 | RTHTGEKPDTCSVCGKSFSRTTCL [Y9D] | 2.78
75 | RTHTGEKPCTCSVCGKSFSRTTCL [Y9C] | 3.77
76 | RTHTGEKPITCSVCGKSFSRTTCL [Y9I] | 2.59
77 | RIHTGEKPYTCSVCGKSFSRTTCL [T2I] | 1.86
78 | RWHTGEKPYTCSVCGKSFSRTTCL [T2W] | 2.2
79 | REHTGEKPYTCSVCGKSFSRTTCL [T2E] | 2.85
80 | RLHTGEKPYTCSVCGKSFSRTTCL [T2L] | 2.1
81 | RQHTGEKPYTCSVCGKSFSRTTCL [T2Q] | 2.66
82 | RYHTGEKPYTCSVCGKSFSRTTCL [T2Y] | 2.07
83 | RRHTGEKPYTCSVCGKSFSRTTCL [T2R] | 2.19
84 | RVHTGEKPYTCSVCGKSFSRTTCL [T2V] | 2.55
85 | RAHTGEKPYTCSVCGKSFSRTTCL [T2A] | 2.32
86 | RMHTGEKPYTCSVCGKSFSRTTCL [T2M] | 2.39
87 | RDHTGEKPYTCSVCGKSFSRTTCL [T2D] | 2.93
88 | RCHTGEKPYTCSVCGKSFSRTTCL [T2C] | 3.48
89 | RKHTGEKPYTCSVCGKSFSRTTCL [T2K] | 2.76
90 | RPHTGEKPYTCSVCGKSFSRTTCL [T2P] | 2.2
91 | RFHTGEKPYTCSVCGKSFSRTTCL [T2F] | 2.69
92 | RHHTGEKPYTCSVCGKSFSRTTCL [T2H] | 2.52
93 | RGHTGEKPYTCSVCGKSFSRTTCL [T2G] | 2.52
94 | RNHTGEKPYTCSVCGKSFSRTTCL [T2N] | 2.49
